B1: N{Epsilon-36}-[2-[2-[2-[[2-[2-[2-[[(4S)-4-carboxy-4-[[4-[(19-carboxynonadecanoylamino)methyl]cyclohexanecarbonyl]amino]butanoyl]amino]ethoxy]ethoxy]acetyl]amino … (peptide)
peptide: H[Aib]EGTFTSDVSSYLEEQAAREFIAWLVRGK([AEEA-AEEA-γGlu-Trx-C20 diacid])GEGPAK([AEEA-AEEA-γGlu-Trx-C20 diacid])
notes: Double-acylated, C-terminally extended GLP-1 analogue made by SPPS; also called 16
B2: N{Epsilon-36}-[2-[2-[2-[[2-[2-[2-[[(4S)-4-carboxy-4-[[4-[(19-carboxynonadecanoylamino)methyl]cyclohexanecarbonyl]amino]butanoyl]amino]ethoxy]ethoxy]acetyl]amino … (peptide)
peptide: H[Aib]EGTFTSDVSSYLEEQAAREFIAWLVRGK([AEEA-AEEA-γGlu-Trx-C20 diacid])GGGGSK([AEEA-AEEA-γGlu-Trx-C20 diacid])
notes: Double-acylated, C-terminally extended GLP-1 analogue made by SPPS
B3: N{Epsilon-23}-[2-[2-[2-[[2-[2-[2-[[(4S)-4-carboxy-4-[[4-[(19-carboxynonadecanoylamino)methyl]cyclohexanecarbonyl]amino]butanoyl]amino]ethoxy]ethoxy]acetyl]amino … (peptide)
peptide: H[Aib]EGTFTSDVSSYLEEK([AEEA-AEEA-γGlu-Trx-C20 diacid])AAREFIAWLVRGRGGGGSK([AEEA-AEEA-γGlu-Trx-C20 diacid])
notes: as for B2
B4: N{Alpha}([Aib8,Glu22,Arg26,Arg34]-GLP-1-(7-37)-peptidyl)-N{Epsilon}[2-[2-[2-[[2-[2-[2-[[(4S)-4-carboxy-4-[[4-[(18-carboxyoctadecanoylamino)methyl]cyclohexanecar … (peptide)
peptide: H[Aib]EGTFTSDVSSYLEEQAAREFIAWLVRGRGK([AEEA-AEEA-γGlu-Trx-C19 diacid])GGSK([AEEA-AEEA-γGlu-Trx-C19 diacid])
notes: Double-acylated, C-terminally extended GLP-1 analogue made by SPPS; also called 26
B5: N{Alpha}([Aib8,Glu22,Arg26,Arg34]-GLP-1-(7-37)-peptidyl)-N{Epsilon}[2-[2-[2-[[2-[2-[2-[[2-[2-[2-[[2-[2-[2-[[2-[2-[2-[[2-[2-[2-[[(4S)-4-carboxy-4-[[4-[(19-carbox … (peptide)
peptide: H[Aib]EGTFTSDVSSYLEEQAAREFIAWLVRGRGK([AEEA-AEEA-AEEA-AEEA-AEEA-AEEA-γGlu-Trx-C20 diacid])GGSK([AEEA-AEEA-AEEA-AEEA-AEEA-AEEA-γGlu-Trx-C20 diacid])
notes: Double-acylated, C-terminally extended GLP-1 analogue made by SPPS; also called 24
B6: N{Alpha}([Aib8,Glu22,Arg26,Arg34]-GLP-1-(7-37)-peptidyl)-N{Epsilon}[2-[2-[2-[[2-[2-[2-[[2-[2-[2-[[2-[2-[2-[[(2S)-2-amino-6-[[(2S)-2-amino-6-(19-carboxynonadecan … (peptide)
peptide: H[Aib]EGTFTSDVSSYLEEQAAREFIAWLVRGRGK([AEEA-AEEA-AEEA-AEEA-εLys-εLys-C20 diacid])GGSK([AEEA-AEEA-AEEA-AEEA-εLys-εLys-C20 diacid])
notes: Double-acylated, C-terminally extended GLP-1 analogue made by SPPS; also called 25
B7: N{Alpha}([Aib8,Glu22,Arg26,Arg34]-GLP-1-(7-37)-peptidyl)-N{Epsilon}[2-[2-[2-[[2-[2-[2-[[2-[2-[2-[[2-[2-[2-[[(4S)-4-carboxy-4-[[4-[(19-carboxynonadecanoylamino)m … (peptide)
peptide: H[Aib]EGTFTSDVSSYLEEQAAREFIAWLVRGRGK([AEEA-AEEA-AEEA-AEEA-γGlu-Trx-C20 diacid])GGSK([AEEA-AEEA-AEEA-AEEA-γGlu-Trx-C20 diacid])
notes: Double-acylated, C-terminally extended GLP-1 analogue made by SPPS; also called 17
B8: N{Alpha}([Aib8,Glu22,Arg26,Arg34]-GLP-1-(7-37)-peptidyl)-N{Epsilon}[2-[2-[2-[[2-[2-[2-[[2-[2-[2-[[2-[2-[2-[[(4S)-4-carboxy-4-(19-carboxynonadecanoylamino)butano … (peptide)
peptide: H[Aib]EGTFTSDVSSYLEEQAAREFIAWLVRGRGK([AEEA-AEEA-AEEA-AEEA-γGlu-C20 diacid])GGSK([AEEA-AEEA-AEEA-AEEA-γGlu-C20 diacid])
notes: Double-acylated, C-terminally extended GLP-1 analogue made by SPPS; also called 19
B9: N{Alpha}([Aib8,Glu22,Arg26,Arg34]-GLP-1-(7-37)-peptidyl)-N{Epsilon}3-[2-[2-[2-[2-[[(4S)-4-carboxy-4-[[4-[(19-carboxynonadecanoylamino)methyl]cyclohexanecarbonyl … (peptide)
peptide: H[Aib]EGTFTSDVSSYLEEQAAREFIAWLVRGRGK([PEG4-γGlu-Trx-C20 diacid])GGSK([PEG4-γGlu-Trx-C20 diacid])
notes: Double-acylated, C-terminally extended GLP-1 analogue made by SPPS; also called 10
B10: N{Alpha}([Imp … (peptide)
peptide: [Desaminohistidyl][Aib]EGTFTSDVSSYLEEQAAREFIAWLVRGRGK([AEEA-AEEA-AEEA-AEEA-γGlu-Trx-C20 diacid])GGSK([AEEA-AEEA-AEEA-AEEA-γGlu-Trx-C20 diacid])
notes: Double-acylated, C-terminally extended GLP-1 analogue made by SPPS; also called 18
B11: N{Alpha}([AAib8,Glu22,Arg26,Arg34]-GLP-1-(7-37)-peptidyl)-N{Epsilon}[2-[2-[3-[2-[2-[3-[[(4S)-4-carboxy-4-(19-carboxynonadecanoylamino)butanoyl]amino]propoxy]eth … (peptide)
peptide: HXEGTFTSDVSSYLEEQAAREFIAWLVRGRGKGGSK
modifications: Aib at position 8; N-epsilon of Lys38 and of Lys42 each acylated with C20 diacid (19-carboxynonadecanoyl)-gGlu-TotaGlyc (GLP-1(7-37) numbering = sequence-listing position + 6)
notes: Double-acylated, C-terminally extended GLP-1 analogue made by SPPS; The printed name has 'AAib8' (typographic slip for Aib8); also called 22
B12: N{Alpha}([Aib8,Glu22,Arg26,Arg34]-GLP-1-(7-37)-peptidyl)-N{Epsilon}[4-[2-[2-[2-[[(4S)-4-carboxy-4-[[4-[(19-carboxynonadecanoylamino)methyl]cyclohexanecarbonyl]a … (peptide)
peptide: B11 peptide
modifications: Aib at position 8; N-epsilon of Lys38 and of Lys42 each acylated with C20 diacid (19-carboxynonadecanoyl)-Trx-gGlu-DooaSuc (GLP-1(7-37) numbering = sequence-listing position + 6)
notes: Double-acylated, C-terminally extended GLP-1 analogue made by SPPS; also called 23

Numbered stars: 1 amine (or outer) side, 2 acyl side, 3 side chain; on linkers, the order of the positions; unused ones are H or OH. Square brackets hold non-standard residues; d marks the D form. Side chains are listed from the residue outwards. Ends that are not written are not given here. * marks the point of attachment. C20 diacid = O=C(O)CCCCCCCCCCCCCCCCCCC(=O)*; C19 diacid = O=C(O)CCCCCCCCCCCCCCCCCC(=O)*; γGlu = O=C(O)[C@H](CCC(=O)[*:2])N[*:1]; Desaminohistidyl = O=C(CCc1c[nH]cn1)*; εLys = N[C@@H](CCCCN[*:1])C(=O)[*:2]; Trx = NC[C@H]1CC[C@H](C(=O)O)CC1; PEG4 = NCCOCCOCCOCCOCCC(=O)O; AEEA = NCCOCCOCC(=O)O; Aib = CC(C)(N)C(=O)O

The first experiment addresses T1, human GLP-1 receptor (human, UniProt P43220 24-463).
T1 construct: whole, on cells
Briefly: competitive binding (SPA): displacement of 125I-GLP-1(7-36)NH2 from BHK cell membranes with human GLP-1 receptor; low HSA (max. 0.001% final). In general terms: In a radioligand displacement assay an active substance lowers the binding of a labelled ligand.
Protocol: (§1) For the receptor binding assay in the presence of low HSA (0.005%) 50 μl of the assay buffer was added to each well of an assay plate. […] For the receptor binding assay in the presence of high HSA (2%) 50 μl of the 8% albumin stock was added to each well of an assay plate. […] Cell membrane aliquots were thawed and diluted to their working concentration. Fifty μl were added to each well in the assay plate. […] WGA SPA beads were suspended in assay buffer at 20 mg/ml. The suspension was diluted to 10 mg/ml in assay buffer just prior to addition to the assay plate. Fifty μl were added to each well in the assay plate. […] A 25 μl aliquot was reserved for measuring total counts/well. […] The assay plate was incubated for 2 h at 30° C. […] The assay plate was centrifuged for 10 min. […] The assay plate was read in a Packard TopCount NXT instrument.
Usually IC50 stands for the midpoint of a concentration-inhibition curve. The low end stands for higher potency, the high end for lower potency. On to B1, for which the IC50 came out at 1.4 nM.

B2 showed an IC50 of 1.1 nM.

As to B3, the IC50 was determined as 0.85 nM.

The molecule B4 returned an IC50 of 0.88 nM.

B5 returned an IC50 of 0.67 nM.

As for B6, the IC50 is 0.22 nM.

Molecule B7 registered an IC50 of 1.8 nM.

B8 gave an IC50 of 2.4 nM.

The molecule B9 registered an IC50 of 1.3 nM.

In turn, B10 gave an IC50 of 2.3 nM.

B11 registered an IC50 of 0.82 nM.

In turn, B12 registered a concentration for half-maximal inhibition (IC50) of 1.4 nM.

A further experiment has as its target T1, human GLP-1 receptor. Briefly: cell-based or functional assay.
Regarding B1, the “EC50 (pM), in vitro potency, CRE luciferase reporter gene assay in BHK cells expressing the human GLP-1 receptor” value (shortened to “EC50 (pM), in vitro potency”) was found to be 25 pM.

Turning to B2, the “EC50 (pM), in vitro potency” value was found to be 61 pM.

Turning to B3, the “EC50 (pM), in vitro potency” value is 74 pM.

As to B4, the “EC50 (pM), in vitro potency” value came to 13 pM.

With B5, the “EC50 (pM), in vitro potency” value came to 7 pM.

For B6, the “EC50 (pM), in vitro potency” value is 10 pM.

On to B7, for which the “EC50 (pM), in vitro potency” value turned out to be 12 pM.

As to B8, the “EC50 (pM), in vitro potency” value was 6.2 pM.

Consider B9, for which the “EC50 (pM), in vitro potency” value is 27 pM.

On to B10, for which the “EC50 (pM), in vitro potency” value worked out at 13 pM.

As to B11, the “EC50 (pM), in vitro potency” value came to 10 pM.

As to B12, the “EC50 (pM), in vitro potency” value came to 22 pM.

Another experiment concerns the target T1, human GLP-1 receptor. Briefly: competitive binding (SPA): displacement of 125I-GLP-1(7-36)NH2 from BHK cell membranes with human GLP-1 receptor; high HSA (2.0% final).
Protocol: as §1
In turn, B1 showed an IC50 of 602 nM.

Take B2: the IC50 was found to be 101 nM.

For B3, the IC50 worked out at 113 nM.

Molecule B4 returned an IC50 of 202 nM.

For B5, the IC50 was found to be 84 nM.

Consider B6, for which the IC50 amounted to 38 nM.

For B7, the IC50 was determined as 99 nM.

Consider B8, for which the IC50 stood at 142 nM.

On to B9, for which the IC50 turned out to be 123 nM.

With B10, the IC50 came out at 219 nM.

As for B11, the IC50 amounted to 194 nM.

In the case of B12, the IC50 is 201 nM.

These data come from patent US20150011462A1 (Novo Nordisk, published 2015).
